Tests used:
[1] = Direct binding ELISA of anti-LPA mAbs to 12:0 LPA
Experimental: The binding of 6 anti-LPA mAbs (B3, B7, B58, A63, B3A6, D22) to 12:0 and 18:1 LPA (0.1 uM) was measured by ELISA. EC50 values were calculated from titration curves using 6 increasing concentrations of purified mAbs (0 to 0.4 ug/ml). EC50 represents the effective antibody concentration with 50% of the maximum binding. Max denotes the maximal binding (expressed as OD450).

[2] = Competition ELISA (18:1 LPA coat), competitor 18:2 LPA; assay type: binding; conditions: maximum inhibition
Experimental: Many isoforms of LPA have been identified to be biologically active and it is preferable that the mAb recognize all of them to some extent to be of therapeutic relevance. The specificity of the anti-LPA mAbs was evaluated utilizing a competition assay in which the competitor lipid was added to the antibody-immobilized lipid mixture.
Competition ELISA assays were performed with the anti-LPA mAbs to assess their specificity. 18:1 LPA was captured on ELISA plates. Each competitor lipid (up to 10 uM) was serially diluted in BSA (1 mg/ml)-PBS and then incubated with the mAbs (3 nM). Mixtures were then transferred to LPA coated wells and the amount of bound antibody was measured with a secondary antibody. Data are normalized to maximum signal (A450) and are expressed as percent inhibition. Assays were performed in triplicate. IC50: Half maximum inhibition concentration; MI: Maximum inhibition (% of binding in the absence of inhibitor); - - -: not estimated because of weak inhibition. A high inhibition result indicates recognition of the competitor lipid by the antibody.

[3] = Competition ELISA specificity, competitor Cer; assay type: binding; conditions: maximum inhibition, n = 3
Experimental: The specificity of the anti-LPA mAbs was assessed for their binding to LPA related biolipids such as distearoyl-phosphatidic acid, lysophosphatidylcholine, S1P, ceramide and ceramide-1-phosphate.

[4] = tested on: renal cell carcinoma (Caki-1) cells; test: Cell monolayer scratch assay, Caki-1; assay type: cell-based, human; conditions: mAb 10 μg/ml
Experimental: An important characteristic of metastatic cancers is that the tumor cells escape contact inhibition and migrate away from their tissue of origin. […] Accordingly, we tested the ability of anti-LPA mAb to block LPA-dependent cell migration in several human cancer cell lines by using the cell monolayer scratch assay. Cells were seeded in 96 well plates and grown to confluence. After 24 h of starvation, the center of the wells was scratched with a pipette tip. In this art-accepted “scratch assay,” the cells respond to the scratch wound in the cell monolayer in a stereotypical fashion by migrating toward the scratch and close the wound. Progression of migration and wound closure are monitored by digital photography at 10× magnification at desired timepoints. Cells were not treated (NT), treated with LPA ([…]) with or w/o mAb B7 (10 μg/ml) or an isotype matching non-specific antibody (NS) (10 μg/ml). In untreated cells, a large gap remains between the monolayer margins following the scratch. LPA-treated cells in contrast, have only a small gap remaining at the same timepoint, and a few cells are making contact across the gap.

B1: LT3000: Murine anti-LPA monoclonal antibody clone B7, IgG1k, renamed Lpathomab, also known as LT3000; hybridoma 504B7.1, ATCC PTA-8420 (antibody, V domains shown)
VH: QVQLQQSGAELVRPGTSVKVSCKASGYGFINYLIEWIKQRPGQGLEWIGLINPGSDYTNYNENFKGKATLTADKSSSTAYMHLSSLTSEDSAVYFCARRFGYYGSGNYFDYWGQGTTLTVSS
VL: DVVMTQTPLSLPVSLGDQASISCTSGQSLVHINGNTYLHWYLQKPGQSPKLLIYKVSNLFSGVPDRFSGSGSGTDFTLKISRVEAEDLGVYFCSQSTHFPFTFGTGTKLEIK
EC50 ([1]; 12:0 LPA 0.1 uM, mAb 0 to 0.4 ug/ml): 0.413 nM
Max (OD450), 12:0 LPA ([1]; maximal binding): 1.395 OD450
MI, 18:2 LPA [2]: 100%
MI (%), Cer [3]: 1%
LPA-stimulated migration [4]: inhibitory effect
